T1: mCCR8 (UniProt P56484 1-353, limits assumed)
T1 construct: whole, on cells; also called 293T-mCCR8
T1 sequence (looked up): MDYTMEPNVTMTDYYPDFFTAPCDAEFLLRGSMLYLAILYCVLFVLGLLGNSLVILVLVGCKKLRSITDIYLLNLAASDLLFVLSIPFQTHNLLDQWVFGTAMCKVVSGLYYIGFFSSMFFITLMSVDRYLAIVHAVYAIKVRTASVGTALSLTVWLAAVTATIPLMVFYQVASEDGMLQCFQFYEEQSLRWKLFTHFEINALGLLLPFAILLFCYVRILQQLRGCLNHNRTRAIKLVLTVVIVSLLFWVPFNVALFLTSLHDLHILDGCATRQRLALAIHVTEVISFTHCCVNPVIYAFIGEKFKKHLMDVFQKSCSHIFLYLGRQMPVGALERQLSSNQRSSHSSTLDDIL


How the values were obtained:
[1] = molecular target: T2, Human CCR8 (C-C chemokine receptor type 8) (human, UniProt P51685 1-355); experiment: flow cytometry on cells carrying human CCR8
T2 construct: overexpressed on HEK293T (293T-hCCR8), Jurkat-hCCR8 and CHEM1-CCR8 cells; also called hCCR8

cynomolgus macaque CCR8 = molecular target: T3, cynomolgus macaque CCR8 (cynomolgus macaque, UniProt G7NYJ2 1-355); experiment: flow cytometry, 293T cells overexpressing cynomolgus CCR8
T3 construct: whole, on cells; Overexpressed on 293T cells (293T-cCCR8) and Jurkat cells (Jurkat-cynoCCR8); also called cCCR8; cyno CCR8
Description: (§1) Binding specificity of the anti-CCR8 antibodies (mAbs) was tested by FACS using several cell lines. […] The binding titration of the anti-CCR8 antibodies to CCR8 transfectants was performed by serial dilution of antibodies. The diluted antibody (50 μl) in flow cytometry buffer (PBS, 0.5% BSA, 1 mM EDTA) was incubated with cells (50 μl) at a concentration of 2 million cells/ml on ice for 30 min. After two washes with flow cytometry buffer, bound antibody was detected with Alexa647-labeled F(ab′)2 fragment goat anti-human IgG (Jackson ImmunoResearch #709-606-149) (1:500 dilution) for 20 minutes on ice. The fluorescence was measured on a Cytek Aurora cytometer, after two washes with flow cytometry buffer. The data were analyzed with GraphPad Prism 8.0 software to determine EC50 values.

[2] = molecular target: T2, Human CCR8 (C-C chemokine receptor type …); experiment: flow cytometry, 293T cells overexpressing human CCR8
Description: as §1

mCCR8 = molecular target: T1, mCCR8; experiment: flow cytometry, 293T cells with mCCR8
Description: as §1

[3] = molecular target: T2, Human CCR8 (C-C chemokine receptor type …); experiment: flow cytometry, Hut78 cells (endogenous human CCR8)
Description: as §1

T2 sequence (P51685 whole entry): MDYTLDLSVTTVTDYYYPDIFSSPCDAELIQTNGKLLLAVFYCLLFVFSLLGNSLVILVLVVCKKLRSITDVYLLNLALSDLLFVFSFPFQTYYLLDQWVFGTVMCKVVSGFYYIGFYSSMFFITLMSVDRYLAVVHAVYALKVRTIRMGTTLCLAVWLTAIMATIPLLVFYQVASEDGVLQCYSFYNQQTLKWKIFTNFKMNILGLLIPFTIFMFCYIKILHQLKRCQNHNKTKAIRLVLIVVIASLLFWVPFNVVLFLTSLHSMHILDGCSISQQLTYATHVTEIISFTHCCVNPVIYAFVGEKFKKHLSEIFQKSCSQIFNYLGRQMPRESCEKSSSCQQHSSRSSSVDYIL
T3 sequence (G7NYJ2 entry or part of it): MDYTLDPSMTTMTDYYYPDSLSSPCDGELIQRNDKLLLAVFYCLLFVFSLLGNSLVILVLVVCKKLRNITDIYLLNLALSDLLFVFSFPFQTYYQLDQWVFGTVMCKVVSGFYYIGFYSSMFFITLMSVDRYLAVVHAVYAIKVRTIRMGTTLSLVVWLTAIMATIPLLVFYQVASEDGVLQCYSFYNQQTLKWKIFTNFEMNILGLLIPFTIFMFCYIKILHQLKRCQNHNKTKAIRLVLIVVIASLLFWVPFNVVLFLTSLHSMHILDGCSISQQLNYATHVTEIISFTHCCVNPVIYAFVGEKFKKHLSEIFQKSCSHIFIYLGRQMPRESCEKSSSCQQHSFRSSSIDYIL

| Binder | binding result [1] | EC50 (cynomolgus macaque CCR8) [nM] | EC50 [2] [nM] | binding result (mCCR8) | other results |
| --- | --- | --- | --- | --- | --- |
| ABC137-H2.hu12.IgG1.SDIE (antibody, V domains shown, Parental clone ABC025.H2G.SDIE; IgG1 with SDIE mutations) VH: EVQLVESGGGLVQPGGSLRLSCAASGFPFNTFAMNWVRQAPGKGLEWLARIRSKSNNYATYYADSVKDRFTISRDNAKRSLYLQMNSLRAEDTAVYYCVRGKENNYGYAMDYWGQGTTVTVSS VL: DIVMTQSPLSLPVTPGEPASISCRSSKSLLHSNGNTYLYWFLQKPGQSPQLLIYRMSNLASGVPDRFSGSGSGTDFTLKISRVEAEDVGVYYCMQHVEYPFTFGGGTKLEIKR | binds |  |  |  |  |
| H2A (antibody, human IgG1, kappa, V domains shown) VH: EVQLVESGGGLVQPGGSLRLSCAASGFPFNTFAMNWVRQAPGKGLEWLARIRSKSNNYATYYADSVKDRFTISRDNAKNSLYLQMNSLRAEDTAVYYCVRGKENNYGYAMDYWGQGTTVTVSS VL: DIVMTQSPLSLPVTPGEPASISCRSSQSLLHSNGNTYLYWFLQKPGQSPQLLIYRMSNLASGVPDRFSGSGSGTDFTLKISRVEAEDVGVYYCMQHLEYPFTFGQGTKLEIKR | binds |  |  |  |  |
| H2B (antibody, human IgG1, kappa, V domains shown) VH: EVQLVESGGGLVQPGGSLRLSCAASGFPFNTFAMNWVRQAPGKGLEWLARIRSKSNNYATYYADSVKDRFTISRDNAKRSLYLQMNSLRAEDTAVYYCVRGKENNYGYAMDYWGQGTTVTVSS VL: DIVMTQSPLSLPVTPGEPASISCRSSQSLLHSNGNTYLYWFLQKPGQSPQLLIYRMSNLASGVPDRFSGSGSGTDFTLKISRVEAEDVGVYYCMQHLEYPFTFGQGTKLEIKR | binds |  |  |  |  |
| H2C (antibody, human IgG1, kappa, V domains shown) VH: EVQLVESGGGLVQPGGSLRLSCAASGFPFNTFAMNWVRQAPGKGLEWLARIRSKSNNYATYYADSVKDRFTISRDNARRSLYLQMNSLRAEDTAVYYCVRGKENNYGYAMDYWGQGTTVTVSS VL: DIVMTQSPLSLPVTPGEPASISCRSSQSLLHSNGNTYLYWFLQKPGQSPQLLIYRMSNLASGVPDRFSGSGSGTDFTLKISRVEAEDVGVYYCMQHLEYPFTFGQGTKLEIKR | binds |  |  |  |  |
| H2I (antibody, human IgG1, kappa, V domains shown) VH: EVQLVESGGGLVQPGGSLRLSCAASGFPFNTFAMNWVRQAPGKGLEWLARIRSKSNNYATYYADSVKDRFTISRDNARRSLYLQMNSLRAEDTAVYYCVRGKENNYGYAMDYWGQGTTVTVSS VL: DIVMTQSPLSLPVTPGEPASISCRSSQSLLHSNANTYLYWFLQKPGQSPQLLIYRMSNLASGVPDRFSGSGSGTDFTLKISRVEAEDVGVYYCMQHLEYPFTFGQGTKLEIKR | binds |  |  |  |  |
| ABC049-B1.hu12.IgG1.SDIE (antibody, V domains shown, IgG1 with SDIE mutations, by its name) VH: EVQLVESGGGLVQPGGSLKLSCAASGFTFNTYAMNWVRQASGKGLEWVARIRSKSNNYATYYADSVKDRFTISRDDSKNTLYLQMNSLKTEDTAVYYCVREVRRDYALDQWGQGTMVTVSS VL: DIVMTQSPLSLPVTPGEPASISCRSSKSLLHSQGNTYLYWFLQKPGQSPQLLIYRMSNLASGVPDRFSGSGSGTDFTLKISRVEAEDVGVYYCMQHVEYPFTFGGGTKLEIKR | binds |  |  |  |  |
| ABC050-B1.hu13.IgG1.SDIE (antibody, V domains shown, IgG1 with SDIE mutations, by its name) VH: EVQLVESGGGLVQPGGSLKLSCAASGFTFNTYAMNWVRQASGKGLEWVARIRSKSNNYATYYADSVKDRFTISRDDSKNTLYLQMNSLKTEDTAVYYCVREVRRDYALDQWGQGTMVTVSS VL: DIVMTQSPLSLPVTPGEPASISCRSSKSLLHSSGNTYLYWFLQKPGQSPQLLIYRMSNLASGVPDRFSGSGSGTDFTLKISRVEAEDVGVYYCMQHVEYPFTFGGGTKLEIKR | binds |  |  |  |  |
| ABC051-B1.hu14.IgG1.SDIE (antibody, V domains shown, IgG1 with SDIE mutations, by its name) VH: EVQLVESGGGLVQPGGSLKLSCAASGFTFNTYAMNWVRQASGKGLEWVARIRSKSNNYATYYADSVKDRFTISRDDSKNTLYLQMNSLKTEDTAVYYCVREVRRDYALDQWGQGTMVTVSS VL: DIVMTQSPLSLPVTPGEPASISCRSSKSLLHSNANTYLYWFLQKPGQSPQLLIYRMSNLASGVPDRFSGSGSGTDFTLKISRVEAEDVGVYYCMQHVEYPFTFGGGTKLEIKR | binds |  |  |  |  |
| ABC815 (antibody, human IgG1, kappa, V domains shown) VH: VQLVESGGGLVQPGRSLKLSCAASGFTFSNYDMAWVRQVPTKGLEWVASVSPSAGTTYYRDSVKGRFTVSRDIAKSSLYLQMDSLRSEDTATYYCARHMIYRGYNYAVSYYVMDVWGQGASVTVSS VL: IQLTQSPSLLSASVGDRVTLTCKGSQNINSYLAWYQQKLGEAPKLLIYNTNSLQTGIPSRFSGSGSGTDYTLTISSLQPEDVATYFCYQYNNGYTWTFGGGTKLELKR |  | 6.47 | 6.47 | no binding |  |
| ABC816 (antibody, human IgG1, kappa, V domains shown) VH: AVQLVESGGGLVQPKESLKISCAASGFTFSNAAMYWVRQAPGKGLEWVARIRTKPNNYATYYADSVKGRFTISRDDSKSMVYLQMDNLKTEDTAMYYCTAAVYSSYGYFDYWGQGVMVTVSS VL: DIQMTQSPASLSASLEEIVTITCQASQNNGNWLAWYQQKPGKSPQLLIYGTTNLADGVPSRFSGSRSGTQYSLKISRLQVEDIGIYYCQQASSTPWTFGGGTKLELKR |  |  |  |  | binding result (cynomolgus macaque CCR8): no binding; binding result [3]: no binding; EC50 (mCCR8): 0.133 nM |
| ABC818 (antibody, human IgG1, kappa, V domains shown) VH: EVQLVESGGGLVQPGRSLKLSCAASGFTFSDYYMAWVRQAPKKGLEWVASITYAGSKTYYGDSVKGRFTISRDDAKSTLYLQMNSLRSEDTATYYCARQDLYYGHNPYWYFDFWGPGTMVTVSS VL: DIVMTQSPTSMSISVGDRVTMNCKASQNVGSNVDWYQQKTGQSPKLLIYKTSSRFTGVPDRFTGSGSRTDFTFTISNMQAEDLALYYCVQSNSYPYTFGAGTKLELKR |  | 0.537 | 0.744 | no binding |  |
| ABC823 (antibody, human IgG1, kappa, V domains shown) VH: EVQLVESGGGLVQPRRSLKLSCAASGFTFSDYYMAWVRQAPKKGLEWVASIGYEGSGVYYGDSVKGRFTISRDDAKSSLYLQMNSLRSEDTATYYCARQELYYGHNPYWYFDFWGPGTMVTVSS VL: DIVMTQSPTSMSISVGDRVTMNCKASQNVGSNVDWYQQKTGQSPKLLIYKTSSRFTGVPDRFTGSGSKTAFSFTISNMQAEDLAVYYCMQSNSYPYTFGAGTKLELKR |  | 0.884 | 1.51 | no binding |  |
| ABC819 (antibody, human IgG1, kappa, V domains shown) VH: EVQLVESGGGLMQPRRSLKLSCAASGFPFSDYNMAWVRQAPKKGLEWVASITYAGTKTYYGDSVKGRFTISRDDAKSTLYLQMNSLRSEDTATYYCARQDLYYGRNQYWYLDFWGPGTMVTVSS VL: DIVMTQSPTSMSKSVGDRVTMSCKASQNVGSNVDWYQQKTGQSPKLLIYKTSSRFTGVPDRFTGSGSRTDFTFTISSMQAEDLALYYCVQSNSYPYTFGAGTKLELRT |  | 7.11 | 8.51 | no binding |  |
| ABC821 (antibody, human IgG1, kappa, V domains shown) VH: EVQLVESGGGLVQPGRSLKLSCVASGFTFNYYWMTWIRQAPGKGLEWVASITNTGDTTYYPDSVKGRFTISRHNAKSTLYLQMNSLRSEDTATYYCSRGDGGSSFWIAYWGQGTLVTVSS VL: DVVMTQTPVSLPVSLGGQASISCRSSQSLVHRSGNTYLHWYLQKPGQSPQLLIYRVSNRFSGGPDRFSGSGSGTTFTLKISRVEPEDLGDYYCLQTTHFPPTFGSGTKLEIKR |  |  |  |  | binding result (cynomolgus macaque CCR8): no binding; binding result [2]: no binding; EC50 (mCCR8): 6.74 nM |
| ABC527 (antibody, human IgG1, kappa, V domains shown) VH: EVQLVESGGGVVQPGRSLRLSCAASGFPFSFYGMAWVRQAPGKGLEWVASISYDGSDTYYRDSVKGRFTISRDNSKNTLYLQMNSLRAEDTAVYYCAKTSGYGSFDYWGQGTLVTVSS VL: DIVMTQTPLSLSVTPGQPASISCRSSRSLVHRNGDTYLHWYLQKPGQSPQLLIYRVSNRFAGVPDRFSGSGSGTDFTLKISRVEAEDVGVYYCLQGTHLPPTFGQGTKLEIKR |  | 2.14 | 1.74 | no binding |  |
| ABC531 (antibody, human IgG1, kappa, V domains shown) VH: EVQLVESGGGVVQPGGSLRLSCAASGFTFSNYGMHWIRQAPGKGLEWIAMIYSDSSKMFYTDTVKGRFTISRDNSKNTLYLQMNSLRAEDTAVYYCAARDYGYKGAHYYVMDAWGQGTTVTVSS VL: DIQMTQSPSSLSASVGDRVTITCKSSQNINRYLNWYQQKPGKAPKLLIYNANNLQTGIPSRFSGSGSGTDFTFTISSLQPEDIATYYCLQHKSWPYTFGQGTKLEIKR |  | 0.554 | 1.44 | no binding |  |
